± gives the uncertainty stated by the source.

This data set in a line: abundance fitness (aPCA) (normalised: wild type 0, dead -1); higher = more abundant; growth selection in yeast, the domain comes from the species named. As to conditions: Homo sapiens.
As to “SAFB-like transcription modulator L39Y, Q9NWH9”, the abundance fitness is -0.305 ± 0.038.

For “SAFB-like transcription modulator L48A, Q9NWH9”, the abundance fitness is -0.432 ± 0.053.

Turning to “SAFB-like transcription modulator L48C, Q9NWH9”, the abundance fitness is -0.51 ± 0.042.

On to “SAFB-like transcription modulator L48D, Q9NWH9”, for which the abundance fitness is -0.274 ± 0.071.

In the case of “SAFB-like transcription modulator L48E, Q9NWH9”, the abundance fitness was -0.478 ± 0.086.

Consider “SAFB-like transcription modulator L48F, Q9NWH9”, for which the abundance fitness is -0.886 ± 0.062.

For the substance “SAFB-like transcription modulator L48G, Q9NWH9”, the abundance fitness is -0.472 ± 0.054.

As for “SAFB-like transcription modulator L48H, Q9NWH9”, the abundance fitness was -0.52 ± 0.059.

As for “SAFB-like transcription modulator L48I, Q9NWH9”, the abundance fitness is -0.513 ± 0.063.

On to “SAFB-like transcription modulator L48K, Q9NWH9”, for which the abundance fitness was -0.371 ± 0.055.

Consider “SAFB-like transcription modulator L48M, Q9NWH9”, for which the abundance fitness was -0.075 ± 0.04.

As to “SAFB-like transcription modulator L48N, Q9NWH9”, the abundance fitness was -0.489 ± 0.043.

On to “SAFB-like transcription modulator L48P, Q9NWH9”, for which the abundance fitness was -0.489 ± 0.048.

Take “SAFB-like transcription modulator L48R, Q9NWH9”: the abundance fitness was -0.537 ± 0.043.

With “SAFB-like transcription modulator L48S, Q9NWH9”, the abundance fitness was -0.585 ± 0.039.

“SAFB-like transcription modulator L48T, Q9NWH9”: the abundance fitness is -0.538 ± 0.043.

Consider “SAFB-like transcription modulator L48V, Q9NWH9”, for which the abundance fitness is -0.607 ± 0.054.

In the case of “SAFB-like transcription modulator L48W, Q9NWH9”, the abundance fitness was -0.613 ± 0.04.

For “SAFB-like transcription modulator L48Y, Q9NWH9”, the abundance fitness is -0.788 ± 0.043.

On to “SAFB-like transcription modulator L52A, Q9NWH9”, for which the abundance fitness is -0.702 ± 0.04.

Turning to “SAFB-like transcription modulator L52C, Q9NWH9”, the abundance fitness was -0.827 ± 0.12.

For the substance “SAFB-like transcription modulator L52D, Q9NWH9”, the abundance fitness is -0.497 ± 0.05.

As for “SAFB-like transcription modulator L52E, Q9NWH9”, the abundance fitness is -0.456 ± 0.15.

“SAFB-like transcription modulator L52F, Q9NWH9”: the abundance fitness was -0.568 ± 0.12.

“SAFB-like transcription modulator L52G, Q9NWH9”: the abundance fitness was -0.611 ± 0.048.

Regarding “SAFB-like transcription modulator L52M, Q9NWH9”, the abundance fitness was -0.456 ± 0.1.

With “SAFB-like transcription modulator L52N, Q9NWH9”, the abundance fitness is -0.385 ± 0.23.

Regarding “SAFB-like transcription modulator L52P, Q9NWH9”, the abundance fitness is -0.467 ± 0.12.

In the case of “SAFB-like transcription modulator L52Q, Q9NWH9”, the abundance fitness is -0.927 ± 0.45.

Take “SAFB-like transcription modulator L52R, Q9NWH9”: the abundance fitness was -0.808 ± 0.057.

With “SAFB-like transcription modulator L52S, Q9NWH9”, the abundance fitness is -0.563 ± 0.087.

As for “SAFB-like transcription modulator L52T, Q9NWH9”, the abundance fitness is -0.642 ± 0.16.

In the case of “SAFB-like transcription modulator L52V, Q9NWH9”, the abundance fitness was -0.412 ± 0.077.

Regarding “SAFB-like transcription modulator L52W, Q9NWH9”, the abundance fitness is -1.15 ± 0.14.

As for “SAFB-like transcription modulator L52Y, Q9NWH9”, the abundance fitness is -0.651 ± 0.17.

Turning to “SAFB-like transcription modulator L68A, Q9NWH9”, the abundance fitness was determined as 0.219 ± 0.15.

For the origin of these results see the Human Domainome abundance scans (Beltran et al. 2025).
